Here are results for 14 molecules from US20260028391A1.

The target of test [1] is RSV fusion glycoprotein (RSV-F) of the RSV used in the neutralization of Table 33 (respiratory syncytial virus, strain not stated). In words: cell-based or functional assay.
The target in test [2] is fusion glycoprotein (F) of the MPV used in the neutralization of Table 34 (metapneumovirus). Kind of test: cell-based or functional assay.
Test [3] deals with biot-MPV-F wt (metapneumovirus (MPV)). In words: BLI, SA sensor loaded with biot-MPV-F wt, mAb 5 ug/ml, 4 min association, 6 min dissociation. A general note: Biolayer interferometry detects binding as a change in optical thickness at a sensor tip.
Test [4] deals with biot-MPV-F D280N (metapneumovirus (MPV)). In words: BLI, SA sensor loaded with biot-MPV-F D280N (sheet title 'MPV-G D280N'; head of the value column printed 'MPV-F', not 'KD (M)'), mAb 5 ug/ml, 4 min association, 6 min dissociation.
Test [5] deals with MPV F WT expressed on transfected Expi293F cells (metapneumovirus (MPV)). In words: flow cytometry, transfected Expi293F cells, fixed and permeabilised. Background: Flow cytometry measures light scatter and fluorescence of single cells or particles in a stream.
The target in test [6] is MPV F D280N mutant expressed on transfected Expi293F cells (metapneumovirus (MPV)). The description is as above.
The target of test [7] is biot-MPV-F wt (metapneumovirus (MPV)). In words: BLI (Octet), biotinylated F on SA sensors, mAb 5 µg/ml.
Test [8] deals with biot-MPV-F D280N (metapneumovirus (MPV)). The description is as above.
Test [9] concerns the target biot-RSV-F wt (respiratory syncytial virus (RSV)). The test is described as above.
Test [10] has the same target. Kind of test: BLI, SA sensor loaded with biot-RSV-F wt, mAb 5 ug/ml, 4 min association, 6 min dissociation.
For test [11], the target named is DS-Cav1 RSV F (respiratory syncytial virus). In words: ELISA on DS-Cav1 RSV F.
Test [12] addresses MPV fusion glycoprotein without the D280N mutation (MPV-F D280) (metapneumovirus). Kind of test: biolayer interferometry (BLI), rIgG1 with M428L/N434S.
Test [13] concerns the target MPV fusion glycoprotein with the D280N mutation (MPV-F N280) (metapneumovirus). Described as above.
Test [14] concerns the target biot-MPV-F D280N (metapneumovirus (MPV)). Kind of test: BLI, SA sensor loaded with biot-MPV-F D280N (sheet title 'MPV-G D280N'), mAb 5 ug/ml, 4 min association, 6 min dissociation.
Test [15] concerns the target fusion glycoprotein of the RSV used in the neutralization assay of Example 1 (respiratory syncytial virus (strain not stated)). Kind of test: cell-based or functional assay.

B1: MPK104-v1.1-rIgG1m17,1-LS (antibody, V domains shown)
VH: QVQLVESGGGLVKPGGSLRLSCAASGFTIDGYGMNWVRQAPGKGLEWVSSISASSNYIYYADSMKGRFTISRDNGKNSLYLQMHSLRVEDTGVYYCARAPLEPPYFDLWGRGTLVTVSS
VL: QSVLTQPPSVSGAPGQRVTISCSGGSSNIGAGYDVHWYQQVPGKGPKVLIYGNNNRPSGVPDRFSGSNFGASASLAITGLQADDEADYFCQSYDRRLGGPVFGGGTKLTVL
On to B1, for which, in test [1], the IC50 (ng/mL) in neutralization against RSV was 6.61 ng/mL. This molecule also had an IC50 (ng/mL) in neutralization against MPV in test [2] of 1.36 ng/mL. The Kd (in general, the equilibrium constant for the complex coming apart) is under 0.001 nM in [3] and 0.497 nM in test [4]. Further, the Binding (FACS) relative to parental mAb MPK104-v1.1 in test [5] and in test [6] was 1 each time.

B2: MPK104-v1.3-rIgG1m17,1-LS (antibody, V domains shown)
VH: QVQLVESGGGLVKPGGSLRLSCAASGFTIDGYGMNWVRQAPGKGLEWVSSISASSNYIYYADSMKGRFTISRDNGKNSLYLQMHSLRVEDTGVYYCARAPLEPPYFDLWGRGTLVTVSS
VL: QSVLTQPPSVSGAPGQRVTISCSGGSSNIGAGYDVHWYQQVPGKGPKVLIYGNTNRPSGVPDRFSGSNFGASASLAITGLQAEDEADYFCQSYDRRLGGPVFGGGTKLTVL
On to B2, for which the Kd is under 0.001 nM in test [7], 0.37 nM in [8], under 0.001 nM in test [3] and 0.49 nM in test [4]. Also, the IC50 (ng/mL) in neutralization against RSV in [1] stood at 4.8 ng/mL. For the same molecule, the IC50 (ng/mL) in neutralization against MPV in test [2] was found to be 1.16 ng/mL. In addition, the figures for the Binding (FACS) relative to parental mAb MPK104-v1.1 in test [5] and in test [6] were 1 and 1.1, respectively.

B3: MPK104-rIgG1-LS (antibody, V domains shown)
VH: EVQLVESGGGLVKPGGSLRLSCAASGFTIDGYGMNWVRQAPGKGLEWVSSISASSNYIYYADSMKGRFTISRDNGKNSLYLQMHSLRVEDTGVYYCARAPLEPPYFDLWGRGTLVTVSS
VL: QSVLTQPPSVSGAPGQRVTISCSGGSSNIGAGYDVHWYQQVPGKGPKVLIYGNNNRPSGVPDRFSGSNFGASASLAITGLQADDEADYFCQSYDRRLGGPVFGGGTKLTVL
As for B3, the Kd is under 0.001 nM in test [7]; 0.306 nM in test [9]; 0.391 nM in test [8]; under 0.001 nM in [3]; 0.0373 nM in [10]; 0.472 nM in test [4].

B4: MPH12-rIgG1-LS (antibody, V domains shown)
VH: QVQLVESGGGLVKPGGSLRLSCVASGFTFSGFYMKWIRQAPGKGLEWVSSISASGSYTNYADSVEGRFTVSRDNAKNSLFLLMSSLRAEDTAVYYCARGDSYCGASACHGEFFHKWGQGTLVTVSS
VL: QSVLTQPPSVSGAPGQRVTISCTGSDSNIGADFDVHWYQQLPGTAPKLLIYGNINRPSGVPDRFSGSRSGTSAFLAITRLQAEDEADYYCQSYDRSLHYVFGAGTKVTVL
As for B4, the Kd is under 0.001 nM in test [7], 1.2 nM in [9] and 1.01 nM in [8]. Moreover, the IC50 (ng/mL) in neutralization against RSV in [1] was determined as 12.9 ng/mL. Also, the IC50 (ng/mL) in neutralization against MPV in [2] is 5.26 ng/mL.

B5: MPH12 VH / MPH12 VL-FRGL-D25E (antibody, V domains shown)
VH: QVQLVESGGGLVKPGGSLRLSCVASGFTFSGFYMKWIRQAPGKGLEWVSSISASGSYTNYADSVEGRFTVSRDNAKNSLFLLMSSLRAEDTAVYYCARGDSYCGASACHGEFFHKWGQGTLVTVSS
VL: QSVLTQPPSVSGAPGQRVTISCTGSESNIGADFDVHWYQQLPGTAPKLLIYGNINRPSGVPDRFSGSKSGTSASLAITGLQAEDEADYYCQSYDRSLHYVFGTGTKVTVL
For the molecule B5, the concentration for a half-maximal effect (EC50) (as a rule, the midpoint of the concentration-response curve) in test [11] is 30.6 ng/mL.

B6: MPH12-v35 (VH-FRGL-D62E/VL-FRGL-D25S) (antibody, V domains shown)
VH: QVQLVESGGGLVKPGGSLRLSCAASGFTFSGFYMKWIRQAPGKGLEWVSSISASGSYTNYAESVEGRFTISRDNAKNSLYLQMNSLRAEDTAVYYCARGDSYCGASACHGEFFHKWGQGTLVTVSS
VL: QSVLTQPPSVSGAPGQRVTISCTGSSSNIGADFDVHWYQQLPGTAPKLLIYGNINRPSGVPDRFSGSKSGTSASLAITGLQAEDEADYYCQSYDRSLHYVFGTGTKVTVL
In the case of B6, the Kd in test [12] was found to be 0.028 nM; in [13], 0.78 nM.

B7: MPH12-v29 (VH-FRGL-D62E/VL-S26A) (antibody, V domains shown)
VH: QVQLVESGGGLVKPGGSLRLSCAASGFTFSGFYMKWIRQAPGKGLEWVSSISASGSYTNYAESVEGRFTISRDNAKNSLYLQMNSLRAEDTAVYYCARGDSYCGASACHGEFFHKWGQGTLVTVSS
VL: QSVLTQPPSVSGAPGQRVTISCTGSDANIGADFDVHWYQQLPGTAPKLLIYGNINRPSGVPDRFSGSRSGTSAFLAITRLQAEDEADYYCQSYDRSLHYVFGAGTKVTVL
Consider B7, for which the Kd in test [12] amounted to 0.027 nM; in test [13], 0.64 nM. This molecule also gave an EC50 in test [11] of 42.5 ng/mL.

B8: MPH12-v34 (VH-FRGL-S63A/VL-FRGL-D25S) (antibody, V domains shown)
VH: QVQLVESGGGLVKPGGSLRLSCAASGFTFSGFYMKWIRQAPGKGLEWVSSISASGSYTNYADAVEGRFTISRDNAKNSLYLQMNSLRAEDTAVYYCARGDSYCGASACHGEFFHKWGQGTLVTVSS
VL: QSVLTQPPSVSGAPGQRVTISCTGSSSNIGADFDVHWYQQLPGTAPKLLIYGNINRPSGVPDRFSGSKSGTSASLAITGLQAEDEADYYCQSYDRSLHYVFGTGTKVTVL
On to B8, for which the figures for the Kd in test [12] and in test [13] were 0.039 nM and 0.82 nM, respectively.

B9: MPH12 VH-FRGL / MPH12 VL-FRGL-D25E (antibody, V domains shown)
VH: QVQLVESGGGLVKPGGSLRLSCAASGFTFSGFYMKWIRQAPGKGLEWVSSISASGSYTNYADSVEGRFTISRDNAKNSLYLQMNSLRAEDTAVYYCARGDSYCGASACHGEFFHKWGQGTLVTVSS
VL: QSVLTQPPSVSGAPGQRVTISCTGSESNIGADFDVHWYQQLPGTAPKLLIYGNINRPSGVPDRFSGSKSGTSASLAITGLQAEDEADYYCQSYDRSLHYVFGTGTKVTVL
As to B9, the concentration for a half-maximal effect (EC50) in test [11] came to 47.2 ng/mL.

B10: MPH12-v17 (VH-FRGL-D62E/VL-D25S) (antibody, V domains shown)
VH: QVQLVESGGGLVKPGGSLRLSCAASGFTFSGFYMKWIRQAPGKGLEWVSSISASGSYTNYAESVEGRFTISRDNAKNSLYLQMNSLRAEDTAVYYCARGDSYCGASACHGEFFHKWGQGTLVTVSS
VL: QSVLTQPPSVSGAPGQRVTISCTGSSSNIGADFDVHWYQQLPGTAPKLLIYGNINRPSGVPDRFSGSRSGTSAFLAITRLQAEDEADYYCQSYDRSLHYVFGAGTKVTVL
Turning to B10, the Kd in test [12] is 0.028 nM; in [13] it was 0.55 nM. In test [11], the EC50 worked out at 25.1 ng/mL.

B11: MPH12 VH-FRGL-S63A / MPH12 VL-FRGL-D25E (antibody, V domains shown)
VH: QVQLVESGGGLVKPGGSLRLSCAASGFTFSGFYMKWIRQAPGKGLEWVSSISASGSYTNYADAVEGRFTISRDNAKNSLYLQMNSLRAEDTAVYYCARGDSYCGASACHGEFFHKWGQGTLVTVSS
VL: QSVLTQPPSVSGAPGQRVTISCTGSESNIGADFDVHWYQQLPGTAPKLLIYGNINRPSGVPDRFSGSKSGTSASLAITGLQAEDEADYYCQSYDRSLHYVFGTGTKVTVL
In test [11], B11 displayed an EC50 of 34.7 ng/mL.

B12: MPK77-rIgG1-LS (antibody, V domains shown)
VH: EVQLVESGGGLVKPGGSLRLSCAASKSFSGYYMIWIRQAPGRGLEWIADISGSSTYTDYADSVKGRFTISRDNTRNTLYLQMNSLRPEDTAVYYCATEQVPSPGPFDLWGPGTLVTVSS
VL: QSVLTQPPSVSGAPGQRVIISCTGSSSNIGAGYDVHWYQQFPGTSPKLLIYRNTNRPSGVPDRFSGFKSGASAALAITGLQAEDEADYYCQSYDRSLSGWAFGGGTKVTVL
With B12, the dissociation constant (Kd) in [7] was under 0.001 nM; in test [9], 0.00228 nM; in test [8], 0.394 nM; in test [3] it was under 0.001 nM; in test [10] it was under 0.001 nM; in [14], 0.406 nM.

B13: MPK190-v1.1-rIgG1m17,1-LS (antibody, V domains shown)
VH: QVQLVESGGGLVKPGGSLTLSCAASGFSISGYGMNWVRQAPGRGLEWVASISASSTYIYYADSMKGRFTISRDNGKTSLYLQMKSLRAEDTAVYYCARAPIEPPYFDLWGRGTLVTVSS
VL: QSVLTQPPSVSGAPGQRVTISCTGSNSNIGAGYDVHWYQHLPGKAPKVLIYGNNNRPSVVPDRFSGSNSGASASLAISGLQAEDEADYFCQSYDRRLSGPIFGGGTKLTVL
Take B13: the Kd was under 0.001 nM in test [7], 0.362 nM in test [8], under 0.001 nM in test [3] and 0.402 nM in [14]. The molecule further gave an IC50 (ng/mL) in neutralization against RSV in test [1] of 5.8 ng/mL. In test [2], this molecule gave an IC50 (ng/mL) in neutralization against MPV of 0.705 ng/mL. Further, the Binding (FACS) relative to parental mAb MPK190-v1.1 in [5] and in test [6] was 1 throughout.

B14: RSD5-FR-GL-rIgG1 (antibody, V domains shown)
VH: QVQLVESGGGVVQPGRSLRLSCAASGFAFNNFAMHWVRQAPGKGLEWVAVVSYDGTSPYYADSVKGRFTISRDNSKNTLYLQMNSLRAEDTAVYYCARGLGSGSYSWIGYFYAMDVWGQGTTVTVSS
VL: QSALTQPASVSGSPGQSITISCTGTSSDVGGYVYVSWYQQHPGKAPKLMIYDVSNRPSGVSNRFSGSKSGNTASLTISGLQAEDEADYYCISYTDRNTVVFGGGTKLTVL
Take B14: the IC50 (ng/mL) in neutralization against RSV in test [1] was 1.2 ng/mL. This molecule had an RSV Neutralization - IC50 in [15] of 5.41 ng/mL. Moreover, in test [2], the IC50 (ng/mL) in neutralization against MPV was over 2000 ng/mL.
